Measurements reported in paper PMC8994553, “Effects of chameleon dispense-to-plunge speed on particle concentration, complex formation, and final resolution: A case study using the Neisseria gonorrhoeae ribonucleotide reductase inactive complex” (Journal of structural biology, 2021).

Target: the molecule itself
Test: cryo-EM structure; α and β mixed 1:1.5 (α:β) with 1 mM dATP and 1 mM CDP on ice in 50 mM HEPES pH 7.6, 15 mM MgCl2, 1 mM EDTA; chameleon 54 ms dispense-to-plunge, 6 mg/mL protein (4.3 Å); also Vitrobot grid, 0.5 mg/mL (5.6 Å); dATP-inactivating conditions

B1: Neisseria gonorrhoeae class Ia ribonucleotide reductase NrdB (β) subunit, hydroxyurea-inactivated (met-β2) (enzyme, UniProt A0ACH0F974 1-377, looked up)
chain: MSYSTFPKTKNDALKEPMFFGQPVNVARYDQQKYEVFEKLIEKQLSFFWRPEEIDVSRDRIDYANLPEHEKHIFISNLKYQTLLDSIQGRSPNVALLPLVSIPELETWVETWSFSETIHSRSYTHIIRNIVNDPSVVFDDIVENEYITARAEDIACYYDDLIEYTQYYNLLGEGVHNVGGKPVTVSLRGLKKKLYLCLMCVNVLEAIRFYVSFACSFAFAERELMEGNAKIIKLIARDEALHLTGTQHMLNLMRSGVDDPEMAEIAAELQDECFQLFKKAAEQEKEWAAYLFKDGSMIGLNKEILSQYVEYITNLRMQAVGLPAGFEGANQNPIPWINAWLSSDNVQVAPQEVEISSYLIGQIDSEVNTDDLGDFEL
notes: N. gonorrhoeae class Ia RNR radical-generating subunit NrdB (β); 377 residues as printed (model holds four residues of the histidine tag, residues 1-346 and 374-376 of 377); expected MW 43253 Da; met-β2: diiron cluster reconstituted (1.8 +/- 0.3 iron per monomer), tyrosyl radical quenched with hydroxyurea; also called NgRNR β; His6-TEV-NgRNR β; source: E. coli T7 Express, pET30a(+), purified …
Does B1 bind?
Result: binds
